Measurements reported in publication PMC10771525 (Communications Biology, 2024).
Like-named read-outs stand apart in the source and are kept apart here. Where a SMILES comes first, the peptide text is derived from it. [ ]: non-standard residue; d: D form.

Tests used:
PTGIR = PTGIR (Homo sapiens, UniProt P43119); experiment: GPCR panel (control), Arrestin, CHO-K1; assay type: cell-based; conditions: reference agonist
MTNR1A = experiment: GPCR panel (control), Arrestin, CHO-K1; assay type: cell-based, human; conditions: reference agonist
MTNR1B = experiment: GPCR panel (control), Arrestin, CHO-K1; assay type: cell-based, human; conditions: reference agonist
P2RY12 = experiment: GPCR panel (control), Arrestin, CHO-K1; assay type: cell-based, human; conditions: reference agonist
P2RY11 = experiment: GPCR panel (control), Arrestin, CHO-K1; assay type: cell-based, human; conditions: reference agonist
OPRD1 = target: T1, OPRD1 (Homo sapiens, UniProt P41143); experiment: GPCR panel (control), Arrestin, CHO-K1; assay type: cell-based; conditions: reference agonist
T1 construct: expressed in transfected cells; host or cells: CHO-K1
T1 sequence (P41143 whole entry): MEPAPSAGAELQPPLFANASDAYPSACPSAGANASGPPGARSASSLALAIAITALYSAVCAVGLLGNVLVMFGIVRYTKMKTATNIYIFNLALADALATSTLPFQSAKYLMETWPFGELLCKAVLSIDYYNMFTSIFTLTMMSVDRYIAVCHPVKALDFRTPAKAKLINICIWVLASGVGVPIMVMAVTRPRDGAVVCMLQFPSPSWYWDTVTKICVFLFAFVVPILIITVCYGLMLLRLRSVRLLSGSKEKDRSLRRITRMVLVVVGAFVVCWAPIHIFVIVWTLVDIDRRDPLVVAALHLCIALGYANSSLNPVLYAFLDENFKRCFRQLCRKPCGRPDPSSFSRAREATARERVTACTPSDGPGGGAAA

TBXA2R = experiment: GPCR panel (control), Arrestin, U2OS; assay type: cell-based, human; conditions: reference agonist
KISS1R = target: T2, KISS1R (Homo sapiens, UniProt Q969F8); experiment: GPCR panel (control), Arrestin, U2OS; assay type: cell-based
T2 construct: expressed in transfected cells; host or cells: U2OS
T2 sequence (Q969F8 whole entry): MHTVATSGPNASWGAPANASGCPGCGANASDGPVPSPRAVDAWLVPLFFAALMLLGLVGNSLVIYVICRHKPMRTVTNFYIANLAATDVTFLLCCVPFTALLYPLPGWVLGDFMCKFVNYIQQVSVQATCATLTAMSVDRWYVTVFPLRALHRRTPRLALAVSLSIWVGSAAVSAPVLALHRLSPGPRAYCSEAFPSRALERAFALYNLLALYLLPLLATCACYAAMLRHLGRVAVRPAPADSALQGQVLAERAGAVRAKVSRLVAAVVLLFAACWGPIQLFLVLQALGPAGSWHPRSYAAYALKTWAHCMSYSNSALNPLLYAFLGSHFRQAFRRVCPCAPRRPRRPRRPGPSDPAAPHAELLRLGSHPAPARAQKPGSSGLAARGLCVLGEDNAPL

PTAFR = experiment: GPCR panel (control), Arrestin, CHO-K1; assay type: cell-based, human; conditions: reference agonist
P2RY2 = experiment: GPCR panel (control), Arrestin, U2OS; assay type: cell-based, human; conditions: reference agonist
P2RY4 = experiment: GPCR panel (control), Arrestin, CHO-K1; assay type: cell-based, human; conditions: reference agonist
P2RY6 = experiment: GPCR panel (control), Arrestin, CHO-K1; assay type: cell-based, human; conditions: reference agonist
CCR1 = experiment: GPCR panel (control), Arrestin, CHO; assay type: cell-based, human; conditions: reference agonist
MRGPRX2 = target: T3, MRGPRX2 (Homo sapiens, UniProt Q96LB1); experiment: calcium mobilization assay, CHEM-1 cells recombinantly expressing MRGPRX2; assay type: cell-based; parameters: host or cells: CHEM-1 adherent rat hematopoietic cells; conditions: for MRGPRX2 activation, Readout 1 / MRGPRX2 activation, Readout 2: Fig. 3b, fragment 1 µM, normalized to 1 µM CXCL14 (100%); for MRGPRX2 activation (in words): large CXCL14 fragments, CHEM1 cells overexpressing MRGPRX2; for EC50: Fluo-8, FLIPR, read-out: EC50, calcium mobilization assays; for pEC50: Fig. 3d
T3 sequence (Q96LB1 1-330): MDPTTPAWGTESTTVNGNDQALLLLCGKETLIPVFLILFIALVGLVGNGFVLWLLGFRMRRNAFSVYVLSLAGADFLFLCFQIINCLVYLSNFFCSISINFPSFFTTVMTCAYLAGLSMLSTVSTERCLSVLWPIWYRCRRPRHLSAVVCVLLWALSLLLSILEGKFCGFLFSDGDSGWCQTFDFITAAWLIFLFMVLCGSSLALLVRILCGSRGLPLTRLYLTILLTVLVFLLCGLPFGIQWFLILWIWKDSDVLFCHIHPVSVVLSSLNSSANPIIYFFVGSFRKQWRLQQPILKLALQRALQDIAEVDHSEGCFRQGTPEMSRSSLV
Source text: To confirm the initial results obtained in the β-arrestin recruitment assays, we established calcium mobilization assays in two different recombinant cell lines, CHEM-1 and LN229 cells, respectively. CHEM-1 cells are adherent rat hematopoietic cells with a high endogenous expression level of the promiscuous Gα15 protein enabling the measuring of calcium signaling of a large variety of GPCRs. […]. Subsequently, we employed recombinant human glioblastoma LN229 cells, a human cell line derived from glioblastoma multiforme tumors. […].
The cell lines CHEM1 and CHEM1-MRGPRX2 are adherent rat cell lines (HTSCHEM-1RTA, HTS058RTA, Merck-Millipore, Darmstadt, Germany); which were cultured under standard cell culture conditions.
A cell-based fluorometric assay was employed for the determination of intracellular calcium release using Fluo-8. Cells were seeded into microtiter plates and incubated under standard cell culture conditions. After 24 h the medium was removed, and the cells were washed with phosphate-buffered saline (PBS). The cells were incubated with loading buffer (40 ml PBS with 2 mM Ca^2+, 800 µl of brilliant black solution (2%), 732 µl of probenecid solution (0.5 M) in 1 N NaOH, 400 µL of pluronic (10%) in water, and 152 µl of Fluo-8 (5.7 ng/ml in water)) for 30 min. For fluorescence readout and compound testing a FLIPR tetra system was used according to the manufacture’s protocol (Molecular Devices, CA 94089- 1136, USA).

[1] = target: MRGPRX2 in CHEM-1 cells (human) (UniProt Q96LB1)
[2] = target: MRGPRX2 fused to ProLink (PK), in CHO β-arrestin cells (human) (UniProt Q96LB1)
[3] = target: MRGPRX2 in the calcium mobilization assays of the small CXCL14 fragments and mutants (human) (UniProt Q96LB1)
[4] = target: MRGPRX2 in the calcium mobilization assays of the small CXCL14 fragments and mutants (human) (UniProt Q96LB1); remark: listed apart in the source
[5] = target: T4, mouse MRGPRB2 in 1321N1 astrocytoma cells (mouse) (UniProt Q3KNA1)
T4 sequence: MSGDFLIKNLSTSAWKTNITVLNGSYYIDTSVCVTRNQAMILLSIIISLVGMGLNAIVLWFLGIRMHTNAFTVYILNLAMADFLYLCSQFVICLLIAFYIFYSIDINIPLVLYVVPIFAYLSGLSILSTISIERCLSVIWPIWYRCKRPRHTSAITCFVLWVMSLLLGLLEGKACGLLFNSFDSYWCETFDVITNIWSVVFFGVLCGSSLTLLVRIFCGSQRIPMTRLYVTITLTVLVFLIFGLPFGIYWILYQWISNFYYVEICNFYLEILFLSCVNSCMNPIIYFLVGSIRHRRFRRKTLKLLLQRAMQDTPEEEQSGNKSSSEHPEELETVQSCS

PROKR1 = experiment: GPCR panel (control), Arrestin, CHO-K1; assay type: cell-based, human; conditions: reference agonist
PROKR2 = experiment: GPCR panel (control), Arrestin, CHO-K1; assay type: cell-based, human; conditions: reference agonist
[6] = CHEM-1 cells recombinantly expressing MRGPRX2

PTGIR, sequence (P43119 1-383): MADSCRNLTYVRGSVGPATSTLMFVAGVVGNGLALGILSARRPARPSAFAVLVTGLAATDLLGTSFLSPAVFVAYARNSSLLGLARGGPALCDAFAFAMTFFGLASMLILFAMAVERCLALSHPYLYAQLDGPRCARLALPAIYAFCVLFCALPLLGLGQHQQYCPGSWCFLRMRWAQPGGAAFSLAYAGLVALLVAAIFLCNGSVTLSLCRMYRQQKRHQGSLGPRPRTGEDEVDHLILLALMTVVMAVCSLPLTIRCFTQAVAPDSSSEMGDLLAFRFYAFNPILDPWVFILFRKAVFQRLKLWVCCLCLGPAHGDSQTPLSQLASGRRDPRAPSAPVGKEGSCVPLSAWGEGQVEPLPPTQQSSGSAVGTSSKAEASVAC

## CC#CCC(C)[C@H](O)/C=C/[C@@H]1[C@H]2c3cccc(CCCC(=O)O)c3O[C@H]2C[C@H]1O (mixture of isomers) [Beraprost]
PTGIR
  EC50: 0.39 µM
  EC80: 18 µM

## COc1ccc2[nH]c(I)c(CCNC(C)=O)c2c1 [2-Iodomelatonin]
MTNR1A
  EC50: 0.085 nM
  EC80: 0.0051 µM
MTNR1B
  EC50: 0.084 nM
  EC80: 0.0042 µM

## CSc1nc(N)c2ncn([C@@H]3O[C@H](COP(=O)(O)OP(=O)(O)O)[C@@H](O)[C@H]3O)c2n1 [2-methylthio-ADP]
P2RY12
  EC50: 0.0026 µM
  EC80: 0.058 µM

## Nc1ncnc2c1ncn2[C@@H]1O[C@H](COP(=O)(O)OP(=O)(O)OP(=O)(O)O)[C@@H](O)[C@H]1O [ATP]
P2RY11
  EC50: 350 µM
  EC80: 13000 µM

## CSCC[C@H](NC(=O)[C@H](CC(C)C)NC(=O)[C@H](Cc1cnc[nH]1)NC(=O)[C@H](Cc1ccccc1)NC(=O)[C@@H](CCSC)NC(=O)[C@@H](N)Cc1ccc(O)cc1)C(=O)N[C@@H](CC(=O)O)C(N)=O [Deltorphin A] (H-Y[dM]FHLMD-NH2)
OPRD1
  EC50: 0.0023 µM
  EC80: 0.054 µM

## O=C(O)CCC/C=C\C[C@@H]1[C@@H](/C=C/[C@@H](O)COc2ccc(I)cc2)[C@H]2CC[C@@H]1O2 [I-BOP]
TBXA2R
  EC50: 0.12 µM
  EC80: 2.4 µM

## CC(C)C[C@H](NC(=O)CNC(=O)[C@H](Cc1ccccc1)NC(=O)[C@H](CO)NC(=O)[C@H](CC(N)=O)NC(=O)[C@H](Cc1c[nH]c2ccccc12)NC(=O)[C@H](CC(N)=O)NC(=O)[C@@H](N)Cc1ccc(O)cc1)C(=O)N[C@@H](CCCN=C(N)N)C(=O)N[C@@H](Cc1ccccc1)C(N)=O [Kisspeptin-10]
KISS1R
  EC50: 0.063 µM
KISS1R; reference agonist, KISS1R, U2OS, Arrestin
  EC80: 1.1 µM

## CCCCCCCCCCCCCCCCOC[C@H](COP(=O)([O-])OCC[N+](C)(C)C)OC(C)=O [PAF]
PTAFR
  EC50: 0.0063 µM
  EC80: 0.32 µM

## O=c1ccn([C@@H]2O[C@H](COP(=O)(O)OP(=O)(O)OP(=O)(O)O)[C@@H](O)[C@H]2O)c(=O)[nH]1 [UTP]
P2RY2
  EC50: 0.42 µM
  EC80: 12 µM
P2RY4
  EC50: 0.11 µM
  EC80: 3.3 µM
P2RY6
  EC50: 0.1 µM
  EC80: 2.7 µM

## CCL3/MIP1a
CCR1
  EC50: 0.0081 µM
  EC80: 0.57 µM

## CXCL14(1-44): large CXCL14 fragment, inactive (SKCKCSRKGPKIRYSDVKKLEMKPKYPHCEEKMVIITTKSVSRY)
MRGPRX2
  MRGPRX2 activation, Readout 1: 0.3%
  MRGPRX2 activation, Readout 2: 0.6%
  MRGPRX2 activation (in words): inactive

B1: CXCL14(15-77) (domain or fragment)
chain: SDVKKLEMKPKYPHCEEKMVIITTKSVSRYRGQEHCLHPKLQSTKRFIKWYNAWNEKRRVYEE
[1]
  EC50, calcium mobilization, CHEM1 cells overexpressing MRGPRX2: 0.751 µM
MRGPRX2; [6]
  EC50: 0.751 µM
MRGPRX2; replicate column 1
  pEC50: 6.175
MRGPRX2; replicate column 2
  pEC50: 6.411

B2: CXCL14(1-11/18-77) (domain or fragment)
chain: SKCKCSRKGPKKKLEMKPKYPHCEEKMVIITTKSVSRYRGQEHCLHPKLQSTKRFIKWYNAWNEKRRVYEE
[1]
  EC50, calcium mobilization, CHEM1 cells overexpressing MRGPRX2: 0.379 µM
  Emax, calcium mobilization, CHEM1 cells overexpressing MRGPRX2, normalized to the maximal effect of CXCL14: 205%
MRGPRX2; [6]
  improvement of potency compared to CXCL14: 3 fold
  EC50: 0.379 µM
MRGPRX2; CHEM-1 cells recombinantly expressing MRGPRX2, normalized to the maximal effect of CXCL14
  Emax, calcium mobilization assays: 205%
MRGPRX2
  MRGPRX2 activation, Readout 1: 203%
  MRGPRX2 activation, Readout 2: 208%
MRGPRX2; replicate column 1
  pEC50: 6.419
MRGPRX2; replicate column 2
  pEC50: 6.454

B3: CXCL14(39-77) (domain or fragment)
chain: KSVSRYRGQEHCLHPKLQSTKRFIKWYNAWNEKRRVYEE
[1]
  EC50, calcium mobilization, CHEM1 cells overexpressing MRGPRX2: 0.68 µM
  Emax, calcium mobilization, CHEM1 cells overexpressing MRGPRX2, normalized to the maximal effect of CXCL14: 164%

B4: CXCL14(1-32/56-77) (domain or fragment)
chain: SKCKCSRKGPKIRYSDVKKLEMKPKYPHCEEKQSTKRFIKWYNAWNEKRRVYEE
[1]
  EC50, calcium mobilization, CHEM1 cells overexpressing MRGPRX2: 0.678 µM
  Emax, calcium mobilization, CHEM1 cells overexpressing MRGPRX2, normalized to the maximal effect of CXCL14: 175%

B5: CXCL14(57-63) (peptide)
peptide: STKRFIK
[2]
  EC50, β-arrestin recruitment at MRGPRX2: 50.4 µM
  Emax, β-arrestin recruitment at MRGPRX2, normalized to the maximal effect of CXCL14: 53%
[3]
  EC50, calcium mobilization at MRGPRX2: > 10 µM

B6: CXCL14(60-65) (peptide)
peptide: RFIKWY
[4]
  EC50, calcium mobilization at MRGPRX2: 2.15 µM
  Emax, calcium mobilization at MRGPRX2: 130%
[5]
  EC50, calcium mobilization, 1321N1 astrocytoma cells expressing MRGPRB2: 2.32 µM
  Emax, calcium mobilization, 1321N1 astrocytoma cells expressing MRGPRB2: 117%

B7: CXCL14(59-65) (peptide)
peptide: KRFIKWY
[4]
  EC50, calcium mobilization at MRGPRX2: 0.316 µM
  Emax, calcium mobilization at MRGPRX2: 155%
[5]
  EC50, calcium mobilization, 1321N1 astrocytoma cells expressing MRGPRB2: 1.26 µM
  Emax, calcium mobilization, 1321N1 astrocytoma cells expressing MRGPRB2: 127%

B8: CXCL14(1-56/64-77): largest inactive CXCL14 fragment, lacks STKRFIK (peptide)
chain: SKCKCSRKGPKIRYSDVKKLEMKPKYPHCEEKMVIITTKSVSRYRGQEHCLHPKLQWYNAWNEKRRVYEE
MRGPRX2
  MRGPRX2 activation, Readout 1: 10%
  MRGPRX2 activation, Readout 2: 8%
  MRGPRX2 activation (in words): inactive

B9: CXCL14(1-63): large CXCL14 fragment, inactive (peptide)
chain: SKCKCSRKGPKIRYSDVKKLEMKPKYPHCEEKMVIITTKSVSRYRGQEHCLHPKLQSTKRFIK
MRGPRX2
  MRGPRX2 activation, Readout 1: 36%
  MRGPRX2 activation, Readout 2: 38%
  MRGPRX2 activation (in words): inactive

B10: EG VEGF (protein, UniProt P58294 20-105, looked up)
Prokineticin-1: AVITGACERDVQCGAGTCCAISLWLRGLRMCTPLGREGEECHPGSHKVPFFRKRKHHTCPCLPNLLCSRFPDGRYRCSMDLKNINF
PROKR1
  EC50: 0.049 µM
  EC80: 2.4 µM
PROKR2
  EC50: 0.0051 µM
  EC80: 0.41 µM
